In article PMC3479192:
Like-named read-outs stand apart in the source and are kept apart here.

What was measured:
Assay in all cases: dynamic light scattering
[1] = target: full-length BLM protein (human) (UniProt P54132)
[2] = target: full-length BLM protein (human) (UniProt P54132); remark: listed apart in the source
[3] = target: full-length BLM protein (human) (UniProt P54132); remark: listed apart in the source

- % mass in the high-order oligomer peak (radius 9.9 nm) [1]: 96.1%
- % mass in the high-order oligomer peak (radius 10.1 nm) [1]: 97.2%
- % mass in the high-order oligomer peak (radius 12.6 nm) [1]: 62.2%
- % mass in the high-order oligomer peak (radius 12.7 nm) [1]: 57.8%
- % mass in the high-order oligomer peak (radius 20.3 nm) [1]: 90.5%
- % mass in the low-order oligomer peak (radius 8.2 nm) [1]: 37.8%
- stoichiometry N [1]: 6
- stoichiometry N [2]: 3
- stoichiometry N [3]: 6
Substance: full-length BLM protein, P54132 1-1417 (enzyme; other documents disagree on this pair)
